According to US20110262424A1 (published 2011):

How the values were obtained:
[1] = target: human von Willebrand factor (human) (UniProt P04275); assay: SPR, Biacore 3000, vWF amine-coupled to CM5 chip, global fit to a simple interaction model
[2] = target: T1, human von Willebrand factor (human, UniProt P04275 764-2813, limits assumed); assay: as above
T1 construct: The preparation used in the assay is not described; also called vWF
Protocol: The binding of human-cl rhFVIII to human von Willebrand factor was analyzed using surface plasmon resonance with the Biacore 3000 instrument. The recombinant factor VIII products X and Y derived from murine cell lines (murine-cl rhFVIII X and Y) were used as comparators.
The von Willebrand factor was immobilized through primary amines to the carboxymethylated dextran of a CM5 sensor chip. The binding data were globally fit to a simple interaction model yielding kinetic parameters and affinities. The kinetics in binding and affinity to von Willebrand factor were analyzed. Furthermore, a quantitative measure of the capacity of Human-cl rhFVIII to bind to von Willebrand factor in comparison with other recombinant factor VIII products was obtained.

murine-cl rhFVIII X (recombinant factor VIII product X derived from a murine cell line) (from UniProt P00451 20-2351)
Kd [1]: 0.32 nM
koff [1]: 0.00105 s⁻¹
kon [1]: 3.3e+06 M⁻¹ s⁻¹

murine-cl rhFVIII Y (recombinant factor VIII product Y derived from a murine cell line) (from UniProt P00451 20-2351)
Kd [1]: 0.34 nM
koff [1]: 0.00105 s⁻¹
kon [1]: 3.1e+06 M⁻¹ s⁻¹

B1: human cell line recombinant human factor VIII (human-cl rhFVIII), a human B-domain-deleted factor VIII protein produced in the human cell line HEK293F (other, UniProt P00451 20-2351, looked up)
chain: ATRRYYLGAVELSWDYMQSDLGELPVDARFPPRVPKSFPFNTSVVYKKTLFVEFTDHLFNIAKPRPPWMGLLGPTIQAEVYDTVVITLKNMASHPVSLHAVGVSYWKASEGAEYDDQTSQREKEDDKVFPGGSHTYVWQVLKENGPMASDPLCLTYSYLSHVDLVKDLNSGLIGALLVCREGSLAKEKTQTLHKFILLFAVFDEGKSWHSETKNSLMQDRDAASARAWPKMHTVNGYVNRSLPGLIGCHRKSVYWHVIGMGTTPEVHSIFLEGHTFLVRNHRQASLEISPITFLTAQTLLMDLGQFLLFCHISSHQHDGMEAYVKVDSCPEEPQLRMKNNEEAEDYDDDLTDSEMDVVRFDDDNSPSFIQIRSVAKKHPKTWVHYIAAEEEDWDYAPLVLAPDDRSYKSQYLNNGPQRIGRKYKKVRFMAYTDETFKTREAIQHESGILGPLLYGEVGDTLLIIFKNQASRPYNIYPHGITDVRPLYSRRLPKGVKHLKDFPILPGEIFKYKWTVTVEDGPTKSDPRCLTRYYSSFVNMERDLASGLIGPLLICYKESVDQRGNQIMSDKRNVILFSVFDENRSWYLTENIQRFLPNPAGVQLEDPEFQASNIMHSINGYVFDSLQLSVCLHEVAYWYILSIGAQTDFLSVFFSGYTFKHKMVYEDTLTLFPFSGETVFMSMENPGLWILGCHNSDFRNRGMTALLKVSSCDKNTGDYYEDSYEDISAYLLSKNNAIEPRSFSQNSRHQAYRYRRGEITRTTLQSDQEEIDYDDTISVEMKKEDFDIYDEDENQSPRSFQKKTRHYFIAAVERLWDYGMSSSPHVLRNRAQSGSVPQFKKVVFQEFTDGSFTQPLYRGELNEHLGLLGPYIRAEVEDNIMVTFRNQASRPYSFYSSLISYEEDQRQGAEPRKNFVKPNETKTYFWKVQHHMAPTKDEFDCKAWAYFSDVDLEKDVHSGLIGPLLVCHTNTLNPAHGRQVTVQEFALFFTIFDETKSWYFTENMERNCRAPCNIQMEDPTFKENYRFHAINGYIMDTLPGLVMAQDQRIRWYLLSMGSNENIHSIHFSGHVFTVRKKEEYKMALYNLYPGVFETVEMLPSKAGIWRVECLIGEHLHAGMSTLFLVYSNKCQTPLGMASGHIRDFQITASGQYGQWAPKLARLHYSGSINAWSTKEPFSWIKVDLLAPMIIHGIKTQGARQKFSSLYISQFIIMYSLDGKKWQTYRGNSTGTLMVFFGNVDSSGIKHNIFNPPIIARYIRLHPTHYSIRSTLRMELMGCDLNSCSMPLGMESKAISDAQITASSYFTNMFATWSPSKARLHLQGRSNAWRPQVNNPKEWLQVDFQKTMKVTGVTTQGVKSLLTSMYVKEFLISSSQDGHQWTLFFQNGKVKVFQGNQDSFTPVVNSLDPPLLTRYLRIHPQSWVHQIALRMEVLGCEAQDLY
notes: B-domain-deleted construct made in HEK293F cells
Kd [2]: 0.21 nM
koff [2]: 0.00095 s⁻¹
kon [2]: 4.5e+06 M⁻¹ s⁻¹
